These results are taken from patent publication US20210087522A1 (UNIVERSITY OF FLORIDA RESEARCH FOUNDATION, published 2021).

Assay [1] concerns the target T1, APPT, Sfp-like phosphopantetheinyl transferase (PPTase) from Anabaena sp. PCC7120 (Anabaena sp. PCC7120, UniProt P37695 1-237).
T1 construct: also called Anabaena PPTase
T1 sequence: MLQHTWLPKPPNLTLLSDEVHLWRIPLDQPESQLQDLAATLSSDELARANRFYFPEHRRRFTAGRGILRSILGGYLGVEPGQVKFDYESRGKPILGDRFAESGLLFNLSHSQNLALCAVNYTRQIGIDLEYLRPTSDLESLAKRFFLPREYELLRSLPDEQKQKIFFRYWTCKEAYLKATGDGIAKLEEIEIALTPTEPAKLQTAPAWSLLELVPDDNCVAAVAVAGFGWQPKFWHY
Kind of assay: read from Km, Michaelis-Menten kinetics of phosphopantetheinylation (HPLC).

Assay [2] concerns the target T2, SPPT, Sfp-like phosphopantetheinyl transferase (PPTase) from Synechocystis sp. PCC6803 (Synechocystis sp. PCC6803, UniProt Q55185 1-246).
T2 construct: Recombinant protein with a His-tag from pET28b, made in E. coli
T2 sequence: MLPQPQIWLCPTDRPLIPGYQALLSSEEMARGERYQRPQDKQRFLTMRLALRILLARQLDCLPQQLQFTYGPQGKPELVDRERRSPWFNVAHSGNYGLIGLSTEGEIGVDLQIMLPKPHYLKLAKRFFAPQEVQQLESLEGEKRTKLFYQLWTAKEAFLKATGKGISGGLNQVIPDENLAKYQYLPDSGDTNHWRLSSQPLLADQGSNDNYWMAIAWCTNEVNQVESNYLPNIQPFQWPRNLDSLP
The assay is described as above.

B1: SFACP, ACP of the FAS from Synechocystis (other)
chain: MDQEIFEKVKKIVVEQLEVDPDKVTPDATFAEDLGADSLDTVELVMALEEEFDIEIPDEVAETIDTVGKAVEHIESK
As to B1, the binding result in assay [1] and in assay [2] was “binds” each time.
